Measurements from the supplement of paper PMC10567573.

B1: C20orf112 (parent)
chain: YANGGLNYSYRGYGALSSNLQPPA

Variants of: B1
Experiment: protein stability index of a GFP-peptide fusion (GPS, HEK-293T) (PSI 1-6); higher = more stable
Details: c terminus: a fixed tail appended
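Further: lentivirally expressed fusions sorted by FACS into six bins by GFP to DsRed ratio, PSI derived from sequencing read proportions per bin multiplied by bin number.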

Variant	protein stability index
YANGGLNYSYRGFGALSSNLQPPA	2.5
YANGGLNYSYRGDGALSSNLQPPA	1.82
YANGGLNYSYRGRGALSSNLQPPA	1.42
YANGGLNYSYRGTGALSSNLQPPA	1.66
YANGGLNYSYRGKGALSSNLQPPA	2.12
YANGGLNYSYRGEGALSSNLQPPA	1.33
YANGGLNYSYRGLGALSSNLQPPA	2.87
YANGGLNYSYRGAGALSSNLQPPA	1.93
YANGGLNYSYRGSGALSSNLQPPA	1.96
YANGGLNYSYRGQGALSSNLQPPA	2.13
YANGGLNYSYRGVGALSSNLQPPA	1.73
YANGGLNYSYRGNGALSSNLQPPA	1.84
YANGGLNYSYRGGGALSSNLQPPA	1.77
YANGGLNYSYRGWGALSSNLQPPA	2.96
YANGGLNYSYRGPGALSSNLQPPA	2.04
YANGGLNYSYRGHGALSSNLQPPA	2.01
YANGGLNYSYRGCGALSSNLQPPA	2.63
YANGGLNYSYRGIGALSSNLQPPA	2.29
YANGGLRYSYRGYGALSSNLQPPA	1.52
YANGGLLYSYRGYGALSSNLQPPA	3.75
YANGGLDYSYRGYGALSSNLQPPA	1.36
YANGGLMYSYRGYGALSSNLQPPA	2.76
YANGGLWYSYRGYGALSSNLQPPA	2.86
YANGGLSYSYRGYGALSSNLQPPA	2.38

Variant	protein stability index
YANGGLIYSYRGYGALSSNLQPPA	2.27
YANGGLGYSYRGYGALSSNLQPPA	3.08
YANGGLFYSYRGYGALSSNLQPPA	3.66
YANGGLKYSYRGYGALSSNLQPPA	1.81
YANGGLYYSYRGYGALSSNLQPPA	2.53
YANGGLEYSYRGYGALSSNLQPPA	2.52
YANGGLTYSYRGYGALSSNLQPPA	1.2
YANGGLCYSYRGYGALSSNLQPPA	2.1
YANGGLQYSYRGYGALSSNLQPPA	2.08
YANGGLAYSYRGYGALSSNLQPPA	2.81
YANGGLVYSYRGYGALSSNLQPPA	1.15
YANGGLHYSYRGYGALSSNLQPPA	3.47
YANGGLPYSYRGYGALSSNLQPPA	2.47
YANGGLNYSYNGYGALSSNLQPPA	2.27
YANGGLNYSYAGYGALSSNLQPPA	1.72
YANGGLNYSYSGYGALSSNLQPPA	2.19
YANGGLNYSYHGYGALSSNLQPPA	1.69
YANGGLNYSYKGYGALSSNLQPPA	2.09
YANGGLNYSYLGYGALSSNLQPPA	2.31
YANGGLNYSYFGYGALSSNLQPPA	2.31
YANGGLNYSYDGYGALSSNLQPPA	1.82
YANGGLNYSYQGYGALSSNLQPPA	2.32
YANGGLNYSYTGYGALSSNLQPPA	1.53
YANGGLNYSYCGYGALSSNLQPPA	3.49

Variant	protein stability index
YANGGLNYSYWGYGALSSNLQPPA	2.44
YANGGLNYSYIGYGALSSNLQPPA	1.98
YANGGLNYSYVGYGALSSNLQPPA	2.09
YANGGLNYSYYGYGALSSNLQPPA	2.21
YANGGLNYSYPGYGALSSNLQPPA	2.06
YANGGLNYSYGGYGALSSNLQPPA	2.24
YANGGLNYSYEGYGALSSNLQPPA	1.94
YANGGLNYSYMGYGALSSNLQPPA	2.48
YANGGLNYSYRGYLALSSNLQPPA	3.28
YANGGLNYSYRGYHALSSNLQPPA	2.07
YANGGLNYSYRGYDALSSNLQPPA	1.54
YANGGLNYSYRGYYALSSNLQPPA	2.91
YANGGLNYSYRGYFALSSNLQPPA	2.52
YANGGLNYSYRGYKALSSNLQPPA	2.21
YANGGLNYSYRGYPALSSNLQPPA	2.54
YANGGLNYSYRGYSALSSNLQPPA	2.32
YANGGLNYSYRGYIALSSNLQPPA	3.6
YANGGLNYSYRGYQALSSNLQPPA	1.76
YANGGLNYSYRGYEALSSNLQPPA	2.45
YANGGLNYSYRGYNALSSNLQPPA	2.87
YANGGLNYSYRGYTALSSNLQPPA	2.8
YANGGLNYSYRGYVALSSNLQPPA	2.4
YANGGLNYSYRGYAALSSNLQPPA	1.76
YANGGLNYSYRGYMALSSNLQPPA	2.18

Variant	protein stability index
YANGGLNYSYRGYCALSSNLQPPA	3.39
YANGGLNYSYRGYRALSSNLQPPA	2.7
YANGGLNYSYRGYWALSSNLQPPA	3.05
YANGGLNYSIRGYGALSSNLQPPA	1.99
YANGGLNYSPRGYGALSSNLQPPA	1.92
YANGGLNYSFRGYGALSSNLQPPA	1.5
YANGGLNYSERGYGALSSNLQPPA	1.32
YANGGLNYSCRGYGALSSNLQPPA	2.23
YANGGLNYSKRGYGALSSNLQPPA	1.73
YANGGLNYSARGYGALSSNLQPPA	1.9
YANGGLNYSLRGYGALSSNLQPPA	2.3
YANGGLNYSRRGYGALSSNLQPPA	2.01
YANGGLNYSWRGYGALSSNLQPPA	2.66
YANGGLNYSQRGYGALSSNLQPPA	1.77
YANGGLNYSMRGYGALSSNLQPPA	2.97
YANGGLNYSVRGYGALSSNLQPPA	1.89
YANGGLNYSGRGYGALSSNLQPPA	1.5
YANGGLNYSNRGYGALSSNLQPPA	1.89
YANGGLNYSSRGYGALSSNLQPPA	2.48
YANGGLNYSTRGYGALSSNLQPPA	2.25
YANGGLNYSHRGYGALSSNLQPPA	2.15
YANGGLNYSDRGYGALSSNLQPPA	1.54
